The values that follow come from publication PMC5592240, “Succinyl-CoA:Mesaconate CoA-Transferase and Mesaconyl-CoA Hydratase, Enzymes of the Methylaspartate Cycle in Haloarcula hispanica” (Frontiers in Microbiology, 2017).

Substrate in data set [1]: C/C(=C\C(=O)O)C(=O)SCCNC(=O)CCNC(=O)[C@H](O)C(C)(C)COP(=O)(O)OP(=O)(O)OC[C@H]1O[C@@H](n2cnc3c(N)ncnc32)[C@H](O)[C@@H]1OP(=O)(O)O
Briefly: UPLC of CoA esters (hydration to beta-methylmalyl-CoA). The data set is classed as biochemical, Haloarcula hispanica. The settings on record: 100 mM Tris/HCl pH 7.8, 3 M KCl, 5 mM MgCl2, 37°C, forward direction (hydration), apparent. The text has this: UPLC of CoA esters (hydration to beta-methylmalyl-CoA) on mesaconyl-CoA hydratase (Mch, Hah_1340)

Substrate in data set [2]: C/C(=C\C(=O)SCCNC(=O)CCNC(=O)[C@H](O)C(C)(C)COP(=O)(O)OP(=O)(O)OC[C@H]1O[C@@H](n2cnc3c(N)ncnc32)[C@H](O)[C@@H]1OP(=O)(O)O)C(=O)O
Briefly: UPLC of CoA esters (hydration to (S)-citramalyl-CoA). The data set is classed as biochemical, Haloarcula hispanica. The settings on record: 100 mM Tris/HCl pH 7.8, 3 M KCl, 5 mM MgCl2, 37°C, forward direction (hydration), apparent. The text has this: UPLC of CoA esters (hydration to (S)-citramalyl-CoA) on mesaconyl-CoA hydratase (Mch, Hah_1340)

Substrate in data set [3]: C[C@H](C(=O)SCCNC(=O)CCNC(=O)[C@H](O)C(C)(C)COP(=O)(O)OP(=O)(O)OC[C@H]1O[C@@H](n2cnc3c(N)ncnc32)[C@H](O)[C@@H]1OP(=O)(O)O)[C@@H](O)C(=O)O
Briefly: UPLC of CoA esters (dehydration to mesaconyl-C1-CoA). Format: biochemical, Haloarcula hispanica. The following applies: 100 mM Tris/HCl pH 7.8, 3 M KCl, 5 mM MgCl2, 37°C, reverse direction (dehydration), apparent. The text has this: UPLC of CoA esters (dehydration to mesaconyl-C1-CoA) on mesaconyl-CoA hydratase (Mch, Hah_1340)

Substrate in data set [4]: CC(C)(COP(=O)(O)OP(=O)(O)OC[C@H]1O[C@@H](n2cnc3c(N)ncnc32)[C@H](O)[C@@H]1OP(=O)(O)O)[C@@H](O)C(=O)NCCC(=O)NCCSC(=O)C[C@H](O)C(=O)O
The data set is described as follows: UPLC of CoA esters (dehydration). The data set is classed as biochemical, Haloarcula hispanica. The settings on record: 100 mM Tris/HCl pH 7.8, 3 M KCl, 5 mM MgCl2, 37°C, apparent. The text has this:
(§1) UPLC of CoA esters (dehydration) on mesaconyl-CoA hydratase (Mch, Hah_1340)

Substrate in data set [5]: CC(C)(COP(=O)(O)OP(=O)(O)OC[C@H]1O[C@@H](n2cnc3c(N)ncnc32)[C@H](O)[C@@H]1OP(=O)(O)O)[C@@H](O)C(=O)NCCC(=O)NCCSC(=O)C[C@](C)(O)C(=O)O
Briefly: UPLC of CoA esters (dehydration). The data set is classed as biochemical, Haloarcula hispanica. The following applies: 100 mM Tris/HCl pH 7.8, 3 M KCl, 5 mM MgCl2, 37°C, apparent.
Description: as §1

Data set [6] deals with the molecule itself. The data set is described as follows: SEC; analytical gel filtration, 24-ml Superdex 200 Increase 10/300 GL, 50 mM Tris/HCl pH 8.0 with 2 M KCl, 0.75 ml/min; calibrated with alcohol dehydrogenase (150 kDa), bovine serum albumin (66 kDa), carbonic anhydrase (29 kDa), cytochrome c (12.4 kDa); native mass against the monomer's mass. (In general: SEC sorts molecules by how far they enter the pores of the column.)

Substrate in data set [7]: C=CC(=O)O
The data set is described as follows: UPLC of CoA-ester formation. The settings on record: CoA acceptor, 1 mM succinyl-CoA, 100 mM Tris/HCl pH 7.8, 3 M KCl, 5 mM MgCl2, 37°C, apparent. Format: biochemical, Haloarcula hispanica. The text has this: (§2) UPLC of CoA-ester formation on succinyl-CoA:mesaconate CoA-transferase (Mct, Hah_1336)

Substrate in data set [8]: CC(CC(=O)O)C(=O)O
The data set is described as follows: UPLC of CoA-ester formation. The following applies: CoA acceptor, 1 mM succinyl-CoA, 100 mM Tris/HCl pH 7.8, 3 M KCl, 5 mM MgCl2, 37°C, apparent. The data set is classed as biochemical, Haloarcula hispanica.
Description: as §2

Substrate in data set [9]: O=C(O)CCCC(=O)O
The data set is described as follows: UPLC of CoA-ester formation. The data set is classed as biochemical, Haloarcula hispanica. The following applies: CoA acceptor, 1 mM succinyl-CoA, 100 mM Tris/HCl pH 7.8, 3 M KCl, 5 mM MgCl2, 37°C, apparent.
Description: as §2

Substrate in data set [10]: C/C(=C\C(=O)O)C(=O)O
Briefly: UPLC of mesaconyl-CoA formation. Format: biochemical, Haloarcula hispanica. The settings on record: CoA acceptor, 1 mM succinyl-CoA, 100 mM Tris/HCl pH 7.8, 3 M KCl, 5 mM MgCl2, 37°C, apparent. The text has this: (§3) UPLC of mesaconyl-CoA formation on succinyl-CoA:mesaconate CoA-transferase (Mct, Hah_1336)

Substrate in data set [11]: CC(C)(COP(=O)(O)OP(=O)(O)OC[C@H]1O[C@@H](n2cnc3c(N)ncnc32)[C@H](O)[C@@H]1OP(=O)(O)O)[C@@H](O)C(=O)NCCC(=O)NCCSC(=O)CCC(=O)O
The data set is described as follows: UPLC of mesaconyl-CoA formation. The following applies: CoA donor, 10 mM mesaconate, 100 mM Tris/HCl pH 7.8, 3 M KCl, 5 mM MgCl2, 37°C, apparent. Format: biochemical, Haloarcula hispanica.
Description: as §3

B1: mesaconyl-CoA hydratase from Haloarcula hispanica (enzyme, UniProt G0HQ35 1-358, looked up)
chain: MTDWTDPDALDLSDGETFDSLLDRADTREKGHFFEFFAEGDELAHDPGLRLSHHGSEQWMGQTLNHDPAYWRADTAQERGFEERPVHPDYLLACVMGITVEDLSEKGGYFLGRDDVEFHQPATAGTPLSVTSTVVDTRTSSSRPKYGIVTWETEGRDRETGETLVSYRRTNMIPRREPAATDGGAVGEQDEGGPAMPDTLLSPDGERFGDFQAALDTAREENAAVAYRHERGRTMDDQLVAGLPLSTLNTARQHHNRDEMADSPSGDIVAYGDVTRSIALAHARSDEATYREQRFADERFHDFVTLGDTVYGFTRVLDCDPDAGPERAGAVTFEHVAFNQEQTPVYSGRRTAHIQRHQ
notes: mesaconyl-CoA hydratase (Mch, Hah_1340) of Haloarcula hispanica; the 1.07-kb mch gene (358 amino acids, predicted molecular mass 40 kDa) was cloned into pTA963; No removal of the tag is described; also called Mch; Hah_1340; source: Haloferax volcanii H1209 (pTA963), purified (Ni-NTA, gel filtration); not shown: His6, N-terminal, kept
Regarding B1, the Km – broadly, the concentration of substrate that gives half-maximal velocity – was 1000 ± 100 µM in [1]; 180 ± 10 µM in data set [2]; 350 ± 50 µM in [3]; 320 ± 50 µM in [4]; 2600 ± 300 µM in [5]. The Vmax (as a rule, the top rate of the reaction or transport when substrate is in excess) came to 20.7 µmol/min/mg in data set [1]; 1.12 µmol/min/mg in data set [2]; 266 µmol/min/mg in data set [3]; 3.6 µmol/min/mg in [4]; 1.6 µmol/min/mg in data set [5]. Further, the kcat/Km (in general, the second-order rate constant that governs catalysis at low substrate concentration) in [1] turned out to be 6900 M⁻¹ s⁻¹; in data set [2] it was 2000 M⁻¹ s⁻¹; in data set [3], 254000 M⁻¹ s⁻¹; in data set [4] it was 3800 M⁻¹ s⁻¹; in data set [5] it was 200 M⁻¹ s⁻¹. Further, the stoichiometry N (in general, the number of molecules, sites or subunits per partner or assembly) in data set [6] was 2.

B2: succinyl-CoA:mesaconate CoA-transferase from Haloarcula hispanica (enzyme, UniProt G0HQ31 1-396, looked up)
chain: MGALDDLRVLDLTQVLAGPYCTMLLADMGADVVKVERPGGDLIRSNPPFVSDGDEEAYGGYFQSVNRGKRSLELDLGTDEDREAFLSLVERADVVVENFKAGTMEKFDCGYETLREHNPDLIYSSIRGFGDPRTGETHRQGQPSFDLIAQALGGVMEITGQSDGPPTKVGPGVGDLFTAVLNAVGILAAVHHRERTGEGQYVDTAMYDSMVSLCERTVYQYSCDGESPTRQGNSHPTLFPYDSFEAADGHVVIAAFADGHWETLCEAMERPDLAADYPDAGSRIANRESLRREIADWTATIDSETLLDLLEGRVPAAPVQNTADIFDDPHIHDREMLTDVDQPGADEQITIAGSPIKMTETMPSPGGRAPLLDEHRAELLDEAGVGTGTNRVESDD
notes: succinyl-CoA:mesaconate CoA-transferase (Mct, Hah_1336) of Haloarcula hispanica; the 1.19-kb mct gene (396 amino acids, predicted molecular mass 43 kDa) was cloned into pTA963; No removal of the tag is described; also called Mct; Hah_1336; source: Haloferax volcanii H1209 (pTA963), purified (Ni-NTA, gel filtration); not shown: His6, N-terminal, kept
Take B2: the Km in data set [7] stood at 39300 ± 4600 µM; in data set [8], 600 ± 100 µM; in data set [9], 40900 ± 3900 µM; in data set [10], 1300 ± 200 µM; in [11], 2800 ± 200 µM. Moreover, the Vmax in [7] turned out to be 6.2 µmol/min/mg; in [8], 11 µmol/min/mg; in [9] it was 18.1 µmol/min/mg; in [10] it was 17 µmol/min/mg; in data set [11] it was 69.2 µmol/min/mg. Besides, the kcat/Km in [7] was found to be 120 M⁻¹ s⁻¹; in [8], 12400 M⁻¹ s⁻¹; in [9] it was 320 M⁻¹ s⁻¹; in [10], 9800 M⁻¹ s⁻¹; in data set [11], 17800 M⁻¹ s⁻¹. Further, the kcat (in general, the maximal rate divided by the concentration of active sites) in [10] came out at 12.2 s⁻¹. In addition, the “stoichiometry N” value in data set [6] stood at 2.
